Measured values from CN1649900A.
Where no end group is shown, it is not given here. [ ]: non-standard residue; d: D form. sY = N[C@@H](Cc1ccc(OS(=O)(=O)O)cc1)C(=O)O

Experiments:
[1] = target: human platelet glycoprotein Ibα (GPIbα) on platelets or in platelet lysates (human) (UniProt P07359); assay: FACS on washed platelets, control without peptide
[2] = target: human platelet glycoprotein Ibα (GPIbα) on platelets or in platelet lysates (human) (UniProt P07359); assay: cell-based or functional assay
[3] = target: Y1 scFv (human single-chain Fv antibody fragment Y1); assay: competition ELISA, Y1 scFv on glycocalicin
[4] = target: glycocalicin purified from human platelets (soluble extracellular fragment of GPIbα) (human) (UniProt P07359); assay: ELISA on glycocalicin
[5] = target: Y1 scFv (human single-chain Fv antibody fragment Y1); assay: competition ELISA on glycocalicin; peptide 2.5μM
[6] = target: Y1 scFv (human single-chain Fv antibody fragment Y1); assay: competition FACS on washed platelets; peptide 2.5μM
[7] = target: Y1 scFv (human single-chain Fv antibody fragment Y1); assay: competition ELISA on glycocalicin; peptide 200μM
[8] = target: Y1 scFv (human single-chain Fv antibody fragment Y1); assay: competition ELISA on glycocalicin; peptide 25μM
[9] = target: Y1 scFv (human single-chain Fv antibody fragment Y1); assay: competition FACS on washed platelets; peptide 200μM
[10] = target: Y1 scFv (human single-chain Fv antibody fragment Y1); assay: competition ELISA on glycocalicin; peptide 0.5μM
[11] = target: Y1 scFv (human single-chain Fv antibody fragment Y1); assay: competition FACS on washed platelets; peptide 2.5μM; conditions: remark: other sources report otherwise
[12] = target: Y1 scFv (human single-chain Fv antibody fragment Y1); assay: competition FACS on washed platelets; peptide 200μM; conditions: remark: other sources report otherwise
[13] = target: Y1 scFv (human single-chain Fv antibody fragment Y1); assay: competition ELISA on glycocalicin; peptide 2.5μM; conditions: remark: other sources report otherwise
[14] = target: Y1 scFv (human single-chain Fv antibody fragment Y1); assay: competition ELISA on glycocalicin; peptide 0.5μM; conditions: remark: other sources report otherwise
[15] = target: Y1 scFv (human single-chain Fv antibody fragment Y1); assay: competition ELISA on glycocalicin; peptide 200μM; conditions: remark: other sources report otherwise
[16] = target: Y1 scFv (human single-chain Fv antibody fragment Y1); assay: competition ELISA on glycocalicin; peptide 25μM; conditions: remark: other sources report otherwise
[17] = target: Y1 scFv (human single-chain Fv antibody fragment Y1); assay: competition ELISA on glycocalicin, peptide taken as 2.5μM
[18] = target: Y1 scFv (human single-chain Fv antibody fragment Y1); assay: competition ELISA on glycocalicin; first of three values, peptide taken as 200μM
[19] = target: Y1 scFv (human single-chain Fv antibody fragment Y1); assay: competition ELISA on glycocalicin, peptide taken as 25μM

B1: Y1 scFv (human single-chain Fv antibody fragment Y1) (scFv)
scFv: EVQLVESGGGVVRPGGSLRLSCAASGFTFDDYGMSWVRQAPGKGLEWVSGINWNGGSTGYADSVKGRFTISRDNAKNSLYLQMNSLRAEDTAVYYCARMRAPVIWGQGTLVTVSRGGGGSGGGGSGGGGSSELTQDPAVSVALGQTVRITCQGDSLRSYYASWYQQKPGQAPVLVIYGKNNRPSGIPDRFSGSSSGNTASLTITGAQAEDEADYYCNSRDSSGNHVVFGGGTKLTVLGAAAEQKLISEEDLNGAA
[1]
  residual binding of Y1 (% of baseline, Geo mean): 114%
[2]
  凝集作用%; washed platelets, ristocetin; Y1 scFv 12.5微克/毫升: 67%
  凝集作用%; washed platelets, ristocetin; Y1 scFv 14微克/毫升: 92%
  凝集作用%; washed platelets, ristocetin; Y1 scFv 25微克/毫升: 23%
  抑制百分比%; platelet-rich plasma, ristocetin; Y1 scFv25微克/毫升: 13%
  抑制百分比%; ristocetin-induced agglutination of washed platelets; Y1 scFv 25微克/毫升: 77%
  抑制百分比%; ristocetin-induced aggregation in platelet-rich plasma; Y1 scFv50微克/毫升: 80%
  抑制百分比%; washed platelets, ristocetin; Y1 scFv 12.5微克/毫升: 33%
  抑制百分比%; washed platelets, ristocetin; Y1 scFv 14微克/毫升: 8%
  聚集作用%; platelet-rich plasma, ristocetin; Y1 scFv25微克/毫升: 87%
  聚集作用%; platelet-rich plasma, ristocetin; Y1 scFv50微克/毫升: 20%

B2: P-Y*YY, PSGL-1 N-terminal peptide sulfated on the first tyrosine (peptide)
peptide: QATE[sY]EYLDYDFLPETE
[3]
  peptide concentration at which Y1 binding is effectively inhibited: 100 µM

B3: P-YYY*, PSGL-1 N-terminal peptide sulfated on the third tyrosine (peptide)
peptide: QATEYEYLD[sY]DFLPETE
[3]
  peptide concentration at which Y1 binding is effectively inhibited: 1 µM

B4: CONY1, Y1 scFv monomer in which the myc tag is deleted or replaced by Lys-Ala-Lys (KAK) (scFv)
scFv: EVQLVESGGGVVRPGGSLRLSCAASGFTFDDYGMSWVRQAPGKGLEWVSGINWNGGSTGYADSVKGRFTISRDNAKNSLYLQMNSLRAEDTAVYYCARMRAPVIWGQGTLVTVSRGGGGSGGGGSGGGGSSELTQDPAVSVALGQTVRITCQGDSLRSYYASWYQQKPGQAPVLVIYGKNNRPSGIPDRFSGSSSGNTASLTITGAQAEDEADYYCNSRDSSGNHVVFGGGTKLTVLG
[4]
  concentration needed to reach 0.8 OD units: 12.8 微克/毫升

B5: EGR negative control peptide (peptide)
peptide: REEGRQHFFLLEGRSSYS
[5]
  residual binding of Y1 (% of baseline): 100%
[6]
  residual binding of Y1 (% of baseline, Geo mean): 96%
[7]
  residual binding of Y1 (% of baseline): 85%
[8]
  residual binding of Y1 (% of baseline): 89%
[9]
  residual binding of Y1 (% of baseline, Geo mean): 119%
[10]
  residual binding of Y1 (% of baseline): 121%

B6: P-1, non-sulfated synthetic peptide of GPIbα residues 268-285 (peptide)
peptide: GDEGDTDLYDYYPEEDTE
[11]
  residual binding of Y1 (% of baseline, Geo mean): 106%
[12]
  residual binding of Y1 (% of baseline, Geo mean): 87%
[13]
  residual binding of Y1 (% of baseline): 94%
[14]
  residual binding of Y1 (% of baseline): 88%
[15]
  residual binding of Y1 (% of baseline): 61%
[16]
  residual binding of Y1 (% of baseline): 71%

B7: P-1-S, sulfated synthetic peptide of GPIbα residues 268-285 (peptide)
peptide: GDEGDTDL[sY]D[sY][sY]PEEDTE
[5]
  residual binding of Y1 (% of baseline): 62%
[6]
  residual binding of Y1 (% of baseline, Geo mean): 41%
[7]
  residual binding of Y1 (% of baseline): 0%
[8]
  residual binding of Y1 (% of baseline): 25%
[9]
  residual binding of Y1 (% of baseline, Geo mean): 5%
[10]
  residual binding of Y1 (% of baseline): 89%

B8: P-2-S, sulfated synthetic peptide of GPIbα residues 273-285 (peptide)
peptide: TDL[sY]D[sY][sY]PEEDTE
[17]
  residual binding of Y1 (% of baseline): 78%
[6]
  residual binding of Y1 (% of baseline, Geo mean): 61%
[18]
  residual binding of Y1 (% of baseline): 15%
[9]
  residual binding of Y1 (% of baseline, Geo mean): 7%
[19]
  residual binding of Y1 (% of baseline): 52%

B9: P-3-S, sulfated synthetic peptide of GPIbα residues 268-280 (peptide)
peptide: GDEGDTDL[sY]D[sY][sY]P
[17]
  residual binding of Y1 (% of baseline): 80%
[6]
  residual binding of Y1 (% of baseline, Geo mean): 82%
[18]
  residual binding of Y1 (% of baseline): 21%
[9]
  residual binding of Y1 (% of baseline, Geo mean): 26%
[19]
  residual binding of Y1 (% of baseline): 67%
